Numbering of substitutions follows the chain as printed. Names may count otherwise. Values belong to the molecule of their own block, whether it stands above or below them. Residues, ends and D or L forms follow the SMILES beside them. No end group written: not given here.
Assays:
Par6-PKCι-Cdc42 complex = test: In vitro activity of activated Par complex (data not shown); assay type: biochemical
[1] = target: T1, PKCιKD-2P (primed human PKC-iota kinase domain) (Homo sapiens, UniProt P41743, C595S); test: In vitro kinase assay (ADP Quest), peptide as substrate, Michaelis-Menten kinetics; assay type: biochemical; conditions: in vitro kinase assay
T1 construct: encoding residues 248–596 (GenBank: NM_002740.5); GST (followed by a 3C protease site) (N, cleaved yes); made in house; host or cells: Hi5 insect cells, baculovirus, co-infected with a PDK-1 virus
T1 sequence (P41743 248-596 C595S): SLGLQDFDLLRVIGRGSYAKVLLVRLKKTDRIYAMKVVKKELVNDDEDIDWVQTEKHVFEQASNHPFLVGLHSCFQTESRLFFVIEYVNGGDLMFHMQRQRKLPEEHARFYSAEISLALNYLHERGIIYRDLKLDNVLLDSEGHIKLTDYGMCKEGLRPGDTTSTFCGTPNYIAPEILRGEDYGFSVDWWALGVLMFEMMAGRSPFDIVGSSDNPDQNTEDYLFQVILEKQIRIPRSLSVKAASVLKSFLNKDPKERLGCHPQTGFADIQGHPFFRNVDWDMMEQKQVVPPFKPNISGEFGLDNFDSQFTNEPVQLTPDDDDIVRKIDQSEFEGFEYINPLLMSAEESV
Method: (§1) The ADP Quest kit (DiscoveRx) was used to determine the kcat app and KM app values for ATP against the PKCιKD-1P and PKCιKD-2P using a series of synthetic peptide substrates as described by [Kjaer et al. (2013)]. The reactions were measured every 2 min for 30 min in a 384-well plate using a Safire^2 plate reader (Tecan). The kinetic constants were determined by fitting the data to the Michaelis-Menten equation. Data are represented as mean ± SEM. Fluorescence anisotropy assays were performed to determine the KD for each peptide labeled with a fluorescein tag following standard protocols using a Safire^2 plate reader (Tecan). The anisotropy values were normalized and the KD was determined using non-linear regression. All experiments were performed in triplicate and for at least three independent protein preparations.
The ADP Quest kit (DiscoveRx) was used to determine the kcat app and Km app values for ATP against the PKCι KD-1P and PKCι KD-2P. The assay uses a coupled reaction to convert ADP to a product that has a fluorescence excitation at 530 nm and emission at 590 nm. Several synthetic peptide substrates were used including a model peptide […]
([…]) derived from a PKCε pseudo-substrate sequence with an alanine-serine change. We found this peptide to be an efficient substrate peptide for aPKC isozymes. Peptides from human Par3CR3 (residues 816-835) and F-X-R short […]
(§2) peptide ([…]) related to the Nishikawa and co-workers consensus were also used in the study (Nishikawa et al., 1997). For the kcat app and Km app reactions, the ATP concentration ranged from 0-200 µM, while the synthetic peptide substrates were kept constant at 200 µM to avoid product inhibition. The reactions were measured every two minutes for 30 minutes in a 384-well plate using a Safire 2 plate reader (Tecan). The kinetic constants were determined by fitting the data to Michaelis–Menten equation using the graphics program Prism (GraphPad Prism, version 5.0d, GraphPad Software). […]

[2] = target: T1, PKCιKD-2P (primed human PKC-iota kinase domain); test: In vitro kinase assay (ADP Quest), inhibition of phosphorylation of a model substrate peptide; assay type: biochemical; conditions: Figures 1C, S5C
Method: as §1, with “All experiments were performed in triplicate and for at least three independent protein preparations.” left out
The ADP Quest kit (DiscoveRx) was used to determine the kcat app and Km app values for ATP against the PKCι KD-1P and PKCι KD-2P. The assay uses a coupled reaction to convert ADP to a product that has a fluorescence excitation at 530 nm and emission at 590 nm. […]
as §2, with “For the kcat app and Km app reactions, the ATP concentration ranged from 0-200 µM, while the synthetic peptide substrates were kept constant at 200 µM to avoid product inhibition.” left out

[3] = target: PKCι kinase domain, 248-596 (UniProt P41743); test: fluorescence anisotropy, fluorescein-labelled peptide; conditions: reference: unphosphorylated Par3CR3 peptide; sites S827
[4] = target: T2, human PKC-iota kinase domain, primed active form (PKCιKD-2P) (human, UniProt P41743 248-596, phosphothreonine at 412 and 564 (pT412, pT564)); test: FP
T2 chain: T1 sequence (P41743 248-596 C595S) with S348C

[5] = target: T3, human PKC-iota kinase domain, partially primed low-activity form (PKCιKD-1P) (human, UniProt P41743 248-596, partially primed: one of the two priming sites pT412 and pT564 phosphorylated); test: FP
T3 chain: T1 sequence (P41743 248-596 C595S) with S348C

[6] = target: T4, human PKC-iota kinase domain, primed active form (PKCιKD-2P) (human, UniProt P41743 248-596, phosphothreonine at 412 and 564 (pT412, pT564)); test: fluorescence polarisation; fluorescence anisotropy of fluorescein-labelled peptide with PKCι kinase domain; Safire2 plate reader; anisotropy normalised, KD by non-linear regression; triplicate, at least three independent protein preparations; conditions: both partners purified
T4 construct: human PKC-iota (PKCι) kinase domain, residues 248-596 of GenBank NM_002740.5; Details of the construct are in the Supplemental Experimental Procedures and in Kjaer et al., 2013; also called primed PKCι kinase domain; PKCι-2P; source: Hi5 cells, baculovirus, co-infection with a PDK-1 virus
T4 sequence (looked up): T1 sequence (P41743 248-596 C595S) with S348C

[7] = target: T2, human PKC-iota kinase domain, primed …; test: FP
[8] = target: T4, human PKC-iota kinase domain, primed …; test: cell-based or functional assay

Molecule: CSCC[C@H](NC(=O)[C@H](CO)NC(=O)[C@H](CCC(N)=O)NC(=O)[C@H](CCCNC(=N)N)NC(=O)CNC(=O)[C@H](Cc1ccccc1)NC(=O)CNC(=O)[C@H](CCC(=O)O)NC(=O)[C@H](CCCNC(=N)N)NC(=O)[C@H](CCC(N)=O)NC(=O)[C@H](Cc1ccccc1)NC(=O)[C@H](C)NC(=O)[C@@H](N)CC(C)C)C(=O)N[C@@H](CO)C(=O)N[C@@H](CCC(=O)O)C(=O)N[C@@H](CCCCN)C(=O)N[C@@H](CCCNC(=N)N)C(=O)N[C@H](C(=O)N[C@@H](CCCCN)C(=O)O)[C@@H](C)O [Par3CR3] (H-LAFQREGFGRQSMSEKRTK-OH; N-terminus and C-terminus assumed)
inhibition of activated Par complex (in words) (Par6-PKCι-Cdc42 complex): potently inhibited

phosphorylation as substrate by PKCι in vitro (in words) [1]: efficient PKCι substrate
inhibition of PKCι catalytic activity in vitro (in words) [2]: does not inhibit
Molecule: FKRQGSVRRR [F-X-Rshort peptide, artificial PKCι substrate resembling the aPKC consensus motif of Nishikawa et al]

inhibition of PKCι catalytic activity in vitro (in words) [2]: potently inhibit
Molecule: Kibra-derived peptide: Kibra-derived peptide (residues 919–978) with F-X-R motif anchor and K-R inhibitory motif (LRGSTIIRSKTFSPGPQSQYVCRLNRSDSDSSTLSKKPPFVRNSLERRSVRMKRPSSVKS)

fold change [3]: weaker
Molecule: Par3 CR3, 816-834 (from UniProt Q8TEW0) phospho-S827 Par3CR3 peptide

Kd [4]: 410 nM
Kd [5]: 53600 nM
Kd [6]: 470 nM
Kd [7]: 730 nM
apparent IC50 of the block of phosphorylation of a model substrate peptide by PKCιKD-2P, in vitro kinase assay [8]: 450 nM
B1: human Par3 conserved region 3 peptide, residues 816-834 (Par3CR3) (peptide, UniProt Q8TEW0 816-834, looked up)
peptide: LAFQREGFGRQSMSEKRTK
modifications: also: fluorescein label (position not given here)
notes: also called wild-type Par3CR3; source: synthetic peptide

Kd [6]: 970 nM
Kd [7]: 690 nM
Molecule: LAFQREGFGRQAMSEKRTK (peptide, UniProt Q8TEW0 816-834, looked up, also: fluorescein label (position not given here), source: synthetic peptide) [Par3CR3 S827A mutant peptide]

Source: article PMC4998004, “aPKC Inhibition by Par3 CR3 Flanking Regions Controls Substrate Access and Underpins Apical-Junctional Polarization” (Developmental Cell, 2016)
